Measured values: PMC3648463, “Common Interactions between S100A4 and S100A9 Defined by a Novel Chemical Probe” (PLoS ONE, 2013)

Assays:
[1] = target: the molecule itself; test: SPR; S100A1, A4, A7, A9 and A13 (~1.3 µg/mL) injected (2 min at 30 µL/min) over immobilised S100A4 and S100A9 (~2.5 kRU); 1 mM Ca++ and 20 µM Zn++; responses at late association phase
[2] = target: T1, recombinant human S100A9 (human, UniProt P06702 1-114); test: as above; settings: both partners purified
T1 construct: S100A9, human, recombinant; No oligomer size was measured here; also called S100A9 homodimer; source: produced in E. coli at Active Biotech
T1 sequence (looked up): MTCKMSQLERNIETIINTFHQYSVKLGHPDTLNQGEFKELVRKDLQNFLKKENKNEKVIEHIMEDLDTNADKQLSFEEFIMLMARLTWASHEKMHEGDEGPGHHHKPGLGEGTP

binding result [2]: binds
B1: recombinant human S100A4 (natural protein)
chain: not shown
notes: S100A4, human, recombinant (R&D Systems); No catalogue number, limits or tags are stated; also called S100A4 homodimer; metastasin; source: bought: R&D Systems
binding result [1]: binds
